T1: human DLL3 antigen (human, UniProt Q9NYJ7 27-492, limits assumed)
T1 construct: also called immobilized human DLL3; recombinant human DLL3
T1 sequence (looked up): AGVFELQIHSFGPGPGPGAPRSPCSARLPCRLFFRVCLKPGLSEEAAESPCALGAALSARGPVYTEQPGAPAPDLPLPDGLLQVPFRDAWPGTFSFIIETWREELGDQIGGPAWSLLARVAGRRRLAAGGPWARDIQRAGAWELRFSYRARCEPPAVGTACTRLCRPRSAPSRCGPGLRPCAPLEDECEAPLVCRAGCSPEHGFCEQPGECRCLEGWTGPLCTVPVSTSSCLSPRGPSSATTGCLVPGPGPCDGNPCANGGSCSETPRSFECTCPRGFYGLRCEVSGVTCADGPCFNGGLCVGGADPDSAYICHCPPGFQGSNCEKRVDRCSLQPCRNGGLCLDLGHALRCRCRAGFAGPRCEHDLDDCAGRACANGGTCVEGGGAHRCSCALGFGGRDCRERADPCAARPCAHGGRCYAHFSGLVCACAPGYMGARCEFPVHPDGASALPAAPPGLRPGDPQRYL


target: T1, human DLL3 antigen; experiment: ELISA or flow cytometry screen

binding result	Binder
binds	SC16.80 (antibody, V domains shown, murine mAb) VH: EVQLQQSGPELVKPGGSKKISCKASGYSFTGYSMNWVKQSHGKNLEWIGLINPYSGGTIYNQKFKGKATLTVDKSSSTAYMELLSLTSEDSAVYYCARRSDYPLVYWGQGTLVTVSA VL: ETTVTQSPASLSMAIGEKVTIRCITSTDIDDDMIWYQQKPGEPPKLLISEGNTLRPGVPSRFSSSGYGTDFVFTIENMLSEDVADYYCLKRDDLPYTFGGGTQVEIKR
binds	SC16.79 (antibody, V domains shown, murine mAb) VH: EVQLQQSGPELVKPGASVKISCKTSGYTFTEYTMHWVKQSHGKSLEWIGGINPNNGGTSYNQKFKGKATLTVDKSSSTAYMELRSLTSEDSAVYYCARGPAWFAYWGQGTLVTVSA VL: DIVMSQSPSSLAVSAGEKVTMSCKSSQSLLNSRTRKNYLAWYQQKPGQSPKLLIYWASTRESGVPDRFTGSGSGTDFTLTISSVQAEDLAVYYCKQSYNLYTFGGGTKLKIKR
binds	SC16.49 (antibody, V domains shown, murine mAb) VH: QVQLQQSGPELVKPGTLVKISCKASGYTFTSYDINWVKQRPGQGLEWIGWIYPGDGNTKYSEKFKGKATLTADKSSSTAYMQLTSLTSENSAVYFCARDYDYPFAYWGQGTLVTVSA VL: DIKMTQSPSSMYASLGERVTITCKASQDINSYLSWFQQKPGKSPKTLIYRANRLVDGVPSRFSGSGSGQDYSLTITSLEYEDMGIYYCLQYDEFPLTFGAGTKLELK
binds	SC16.78 (antibody, V domains shown, murine mAb) VH: EVKLVESGGGLVKPGGSLKLSCAASGFTFGRYVMSWVRQTPEKKLEWVASITSGGTTYYPDSVKGRFTISRDNARNILYLQMSSLRSEDTAMYYCARVYYHYDDIFAYWGQGTLVTVSA VL: DIKMTQSPSSMYASLGERVTITCKASQDINSYLSWFQQKPGRSPKTLIYRANRLVDGVPSRFSGSGSGQDYSLTISSLDYEDMGIYYCLQYDEFPFTFGSGTKLEIK
binds	SC16.57 (antibody, V domains shown, murine mAb) VH: EVKLVESGGDLVKPGGSLKLSCAASGFAFSSYDMSWVRQTPEKRLEWVATISSGGSYTYYPDSVKGRFTISRDNVRDTLYLQMSSLRSEDTALYYCARQAIGTYFDYWGQGTTLTVSS VL: DIVMTQSHKFMSISVGDRVSITCKASQDVSIFVAWYQQKPGQSPKLLIYSASYRYTGVPDRFTGSGSGTDFIFTISSVQAEDLAVYYCQQHYGTPFTFGSGTKLKIR
binds	SC16.7 (antibody, V domains shown, murine mAb) VH: EVQLQQSGPELVKPGASVKISCKASGYSFTGYKMHWVKQSHVKSLEWIGRINPYNGATSYNQNFKDKATLTVDKSSSTAYMDLHSLTSEDSAVYFCARGDYRYDWFAYWGQGTLVTVSA VL: NIMMTQSPSSLAVSAGEKVTMSCKSSQSVLYSSNQKNYLAWYQQKPGQSPKLLIYWASTRESGVPDRFTGSGSGTDFTLTISTVQVEDLAVYYCHQYLSSWTFGGGTKLEIK
binds	SC16.56 (antibody, V domains shown, murine mAb; also called anti-human/mouse DLL3 (SC16.56)) VH: QIQLVQSGPELKKPGETVKISCKASGYTFTNYGMNWVKQAPGKGLKWMAWINTYTGEPTYADDFKGRFAFSLETSASTASLQIINLKNEDTATYFCARIGDSSPSDYWGQGTTLTVSS VL: SIVMTQTPKFLLVSAGDRVTITCKASQSVSNDVVWYQQKPGQSPKLLIYYASNRYTGVPDRFAGSGYGTDFSFTISTVQAEDLAVYFCQQDYTSPWTFGGGTKLEIR
binds	SC16.65 (antibody, V domains shown, murine mAb) VH: QVTLKESGPGILQPSQTLSLTCSFSGFSLSTSGMGVGWIRQPSGKGLEWLALIWWDDVKRYNPALKSRLTISKDASSSQVFLKIASVDTADTATYYCARIASYDYDVVYAMDYWGQGTSVSVSS VL: QIVLTQSPALMSASPGEKVTMTCSVTSSVSYMYWYQQKPRSSPKPWIYLTSNLASGVPARFSGSGSGTSYSLTISSVEAEDAATYYCQQWRNNPFTFGSGTKVEIK
binds	SC16.47 (antibody, V domains shown, murine mAb) VH: EVQLQQSGPELVKPGASVKISCKASGYSFSRFYMHWVKQSPENSLEWIGEINPSTGGTSYNQKFKGKATLTVDKSSSTAYMQLKSLTSEESAVYYCTRGYGSNCYFDVWGAGTTVTVST VL: DVVLTQSPLSLPVNIGDQASISCKSTKSLLNSDGFTYLDWYLQRPGQSPQFLIYLVSNRFSGVPDRFSGSGSGTDFTLKISRVEAEDLGVYYCFQSNYLPLTFGAGTKLELR
binds	SC16.81 (antibody, V domains shown, murine mAb) VH: QVQLKESGPVLVAPSQSLSITCTVSGFSLTSYGVHWVRQPPGKGLEWLGVIWAGGSTNYNSALMSRLSISKDNSKSQVFLKMNSLQTDDTAMYYCAKQGNFYAMDYWGQGTSVTVSS VL: QIVLTQSPAIMSASLGERVTLTCTASSSVSSSYLHWYQQKPGSSPKLWIYSTSNLASGVPTRFSGSGSGTSYSLRISSMEAEDAATYYCHQYNRSPLTFGAGTKLELK
binds	SC16.73 (antibody, V domains shown, murine mAb) VH: QVQLQQSGAELMKPGASVKISCKANGYTFSSYWIEWLRQRPGHGLEWIGEILPGSDNSNYNEKFKGKATFTADTSSNTAYMQLSSLTSEESAVYYCTRGLRRDGSYYYVMEHWGQGTSVTVSS VL: DIQMTQSPSSLSASLGERVSLTCRASQDIGYSLNWLQQEPDGTIKRLIYATSSLDSGVPKRFSGSRSGSDYSLTISSLESEDFVDYYCLQYASSPWTFGGGTKLEIK
binds	SC16.61 (antibody, V domains shown, murine mAb) VH: EVLLQRSGPDLVKPGASVTIPCKASGYTFTDYNMDWVKQSHGKSLEWIGNINTYNGGTIYNQKFKGKATLTVDKPSSTAYMELRSLTSEDTAVYYCARRLRYGGHYFDYWGQGTALTVSS VL: DIVMTQSTSSLAMSVGQKVTMSCKSSQSLLNSSNQKNYLAWYQQEPGQSPKLLVSFASTRESGVPDRFTGSGSGTDFTLTISGVQAEDLAVYYCQQHYSIPLTFGAGTKLELK
binds	SC16.55 (antibody, V domains shown, murine mAb) VH: EVQLVESGGGLVQPKGSLKLSCAVSAFTFTTYAMNWVRQAPGKGLEWVARIRNKSNNYATYYADSVKDRFTISRDDSQSMLYLQMNNLKIEDTAMYYCVFYYDYVYWGQGTLVTVSA VL: DIKMTQSPSSMYASLGERVTITCKASQDINSYLNWFQQKPGKSPKTLIYRANRLVDGVPSRFSGSGSGQDYSLTISSLEYEDMGIYYCLQYDEFPYTFGGGTKLEIKR
binds	SC16.62 (antibody, V domains shown, murine mAb) VH: EVMLVESGGDLVKPGGSLKLSCAASGFTFSSYAMSWVRQTPEKRLEWVAYISGGGDHIYYPDSVRGRFTISRDNAKDTLYLQMSSLRSEDTALYDCARVRDWYFDVWGAGTTVTVSS VL: DIKMTQSPSSMYASLGERVTITCKASQDINSFLSWFQRKPGKSPKTLIYRANRLVDGVPSRFTGSGSGQEFSLTISSLEYEDLGIYYCLQYDEFPYTFGGGTKLEIKR
binds	SC16.67 (antibody, V domains shown, murine mAb) VH: EVQLVETGGGLVQPKGSLKLSCAVSAFTFTTYAMNWVRQAPGKGLEWVARIRNKSNNYATYYADSVKDRFTISRDDSQSMLYLQMNNLKIEDTAMYYCVFYYDYVYWGQGTLVTVSA VL: QAVVTQESALTTSPGETVTLTCRSSTGAVTTSNYANWIQEKPDHLFTGLIGGTNNRAPGVPARFSGSLIGDKAALTITGAQTEDEAIYFCGLWYSNHLVFGGGTKLTVL
binds	SC16.58 (antibody, V domains shown, murine mAb) VH: DVQLVESGGGLVQPGGSRKLSCAASGFTFSSFGMHWVRQAPEKGLEWVAYISSGSSNIYYADTVKGRFTISRDNPKNTLFLQMTSLRSEDTAMYYCARGYYGNYDAMDYWGQGTSVTVSS VL: DIQMTQSPASLSSSVGETVTITCRASENIYSYLAWYQQKQGKSPQLLVYNAKTLAEGVPSRFSGSGSGTQFSLKINSLQPEDFGTYYCQHHYDSPLTFGAGTKLELR
binds	SC16.88 (antibody, V domains shown, murine mAb) VH: QVQLQQSGAELARPGASVKLSCKASGYTCTSYWMQWVKQRPGQGLEWIGAIYPGDGDTRYTQKFKGKATLTADKSSSTAYMQLSSLASEDSAVYYCARGRRTEAWFAYWGQGTLVTVSA VL: not shown
binds	SC16.52 (antibody, V domains shown, murine mAb) VH: QVQLKESGPGLVAPSQSLSITCAVSGFSLTSFAIHWFRKPPGKGLEWLGVIWTGGTTNYNSALMSRLSISKDNSKSQVFLKMNSLQTDDTAMYYCARDDYDNNYAMDYWGQGTSVTVSS VL: DIQMIQSPSSMFASLGDRVSLSCRASQGIRGTLDWYQQKPNGTIKLLIYSTSNLNSGVPSRFSGSGSGSDYSLTISSLESEDFADYYCLQRNAYPLTFGAGTKLELK
binds	SC16.63 (antibody, V domains shown, murine mAb) VH: QVQLQQSGTELLRPGASVKISCKATGYTFSSYWMEWVKQRPGHGLEWIGEILPGSGTTQYNEKFKGKATFTADTSSNTAYMHLSSLTSEDSAVYYCARGTNSLWGQGTLVTVSA VL: QIVLTQSPAIMSASPGEKVTMTCSASSSVSYMYWYQQKSGTSPKRWIYDTSKLASGVPARFSGSGSGTSYSLTISSMEAEDAATYYCQQWSSNPYTFGGGTKLEIK
binds	SC16.72 (antibody, V domains shown, murine mAb) VH: EVQLQQSGPELVKPGASVKMSCKASGYTFTSYVMHWVKQKPGQGLEWIGYINPYNDGTKYNEKFKGKATLTSDKSSSTAYMELSSLTSEDSAVYYCARLRSRAMDYWGQGTSVTVSS VL: ENVLTQSPAIMSASLGEKVTMSCRASSSVNYMSWYQQKSDASPKLWIYYTSNLAPGVPARFSGSGSGNSYSLTISSMEGEDAATYYCQQFTSSPYTFGGGTKLEIKR
binds	SC16.84 (antibody, V domains shown, murine mAb) VH: EVQLQQSGPELVKPGASMKISCKASGYSFTGYTMNWVKQSHGKNLEWIGLINPYNGGTTYNQKFKGKATLTVDKSSSTAYMELLSLTSEDSAVYYCALGYYGNYRRYFDVWGAGTTVTVSS VL: DIQMTQSPSSLSASLGGKVTITCKASQDIKKYIAWYQHKPGKGPRLLIHYTSTLEPGIPSRFSGSGSGRDYSFSISNLEPEDIATYYCLQYDILWTFGGGTKLEIK
